One molecule from patent CN113185610A (UNIV NORTHWEST A&F, dated 2021) can be followed below.

The experiment deals with T1, 金黄色葡萄球菌肠毒素B (Staphylococcus aureus, UniProt P01552 28-266).
T1 construct: Coated at 500 ng/mL
T1 sequence: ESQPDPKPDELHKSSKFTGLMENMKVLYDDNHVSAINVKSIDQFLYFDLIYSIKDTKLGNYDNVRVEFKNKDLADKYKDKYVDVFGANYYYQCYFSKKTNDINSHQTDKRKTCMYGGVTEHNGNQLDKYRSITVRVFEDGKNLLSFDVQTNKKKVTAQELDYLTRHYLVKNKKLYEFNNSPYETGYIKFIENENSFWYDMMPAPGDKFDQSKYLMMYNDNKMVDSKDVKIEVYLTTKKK
The experiment can be described thus: ELISA, coated antigen, HRP-conjugated nanobody, OD450.

B1: 抗金黄色葡萄球菌肠毒素A纳米抗体Anti-SEA-Nb A150 (VHH)
VHH: ESGGGLVQAGGSLRLSCTTSGFTFDDYAMGWFRQAPGKEREGVSCINWNGANAYYADSVKGRFTISRDNNKNTLYLQMNSLKPEDTALYYCAAGRMPILDDHGYVYWGQGTQVTVS
Take B1: the binding result is reported as “no binding (tested: 500ng/mL (coated))”.
